Format in all cases: cell-based
The target of one assay is T1, GβGγ dimer (Homo sapiens, UniProt P59768+P62873).
T1 construct: expressed in transfected cells; host or cells: HEK293
The experiment in a line: Polarization microscopy of probe in HEK293 cells, with or without cotransfected GβGγ dimer. The following applies: cotransfection of plasmids encoding the, excitation polarization resolved single-photon confocal microscopy. The method, then: (§1) Prior to microscopy observations, mammalian cells (HEK293) were cultured at 37° C. under an atmosphere of 95% air, 5% CO2, in Dulbecco's modified Eagle's medium with Glutamax I and high glucose (Life Technologies), supplemented with 10% fetal bovine serum. Cells were plated on 8-chamber microscopy slides (p-Slides, Ibidi GmbH, Germany). Transfections were carried out using 0.2 μg of plasmid DNA and Lipofectamine 2000 (Life Technologies), according to the protocol of the manufacturer. In cotransfections, 0.2 μg of each of the plasmids were used. Microscopy experiments were carried out 48 h after transfection. […]
(§2) In excitation polarization resolved single-photon laser scanning confocal microscopy, the cells (in the multi-well cover slip) were observed using a single-photon laser scanning confocal microscope Olympus FV1200, modified for excitation-polarization resolved microscopy. […] Fluorescence of wavelengths in the range of 510-610 nm was separated from the excitation light by a long-pass dichroic mirror (DM405/488, Olympus, Japan), diffractive grating, and an adjustable slit, and detected by a photomultiplier. […]
(§3) The resulting images were deconvolved and quantitatively analyzed by following published procedures (Bondar A & al., Communications Biology. 2021 Feb. 12; 4(1):1-2.) that rely on publicly available software tools. […]

Assay [1] concerns the target T2, activated form of the insulin receptor 1 (Homo sapiens, UniProt P06213).
T2 construct: His tag (named His6); expressed in transfected cells; host or cells: HEK293
The experiment in a line: Polarization microscopy of probe in HEK293 cells, insulin receptor 1 activated by serum insulin. The following applies: cotransfection of insulin receptor 1 plasmid, activated by 5% fetal bovine serum containing natural levels of insulin, excitation polarization resolved single-photon confocal microscopy. The method, then: as §1, §2, §3

Assay [2] deals with T3, activated form of the G-protein Gαi1 (Gαi1(Q204L)) (Homo sapiens, UniProt P63096, Q204L).
T3 construct: expressed in transfected cells; host or cells: HEK293
Kind of assay: Polarization microscopy of probe in HEK293 cells, with or without cotransfected constitutively activated Gαi1(Q204L). The following applies: cotransfection of Gαi1(Q204L) plasmid. The text has this:
A protein (SEQ ID NO:5) that includes as an anchoring moiety a fragment of the protein h-Ras, a flexible peptide linker (amino acid sequence GSGGSGG (SEQ ID NO:1)), a monomeric enhanced green fluorescent protein (meGFP) as a fluorescent moiety, and an affinity binding peptide KB1753 known to bind the activated form of the G-protein Gαi1 (Johnston C A & al., Structure. 2005 Jul. 1; 13(7):1069-80), was encoded into a DNA sequence (SEQ ID NO:6) and cloned into a mammalian expression vector (pcDNA3.1(+)) under the control of the cytomegalovirus (CMV) promoter. The resulting DNA encoding the probe of invention was transfected into HEK293 cells either alone, or along with DNA encoding the target protein of the probe.
Prior to microscopy observations, mammalian cells (HEK293) were cultured at 37° C. under an atmosphere of 95% air, 5% CO2, in Dulbecco's modified Eagle's medium with Glutamax I and high glucose (Life Technologies), supplemented with 10% fetal bovine serum. Cells were plated on 8-chamber microscopy slides (p-Slides, Ibidi GmbH, Germany). Transfections were carried out using 0.2 μg of plasmid DNA and Lipofectamine 2000 (Life Technologies), according to the protocol of the manufacturer. In cotransfections, 0.2 μg of each of the plasmids were used. Microscopy experiments were carried out 48 h after transfection. Microscopy observations were performed at 37° C., maintained by a heated chamber (iBidi Heating System, iBidi).
The cells were observed by excitation polarization resolved single-photon laser scanning confocal microscopy, by excitation polarization resolved two-photon laser scanning microscopy, by excitation polarization resolved single-photon wide-field fluorescence microscopy, and by fluorescence polarization resolved single-photon laser scanning confocal microscopy.
In excitation polarization resolved single-photon laser scanning confocal microscopy, the cells (in the multi-well cover slip) were observed using a single-photon laser scanning confocal microscope Olympus FV1200, modified for excitation-polarization resolved microscopy. Specifically, the excitation laser beam was passed through an electrooptical polarization modulator (RPM-2P, Innovative Bioimaging, USA) synchronized with the function of the microscope so that the direction of polarization of the laser light was alternated between horizontal and vertical direction (within the image) between acquisition of individual pixels of the image. In order to observe the probes of invention containing the green fluorescent protein (GFP), 488 nm wavelength was used for excitation. Fluorescence of wavelengths in the range of 510-610 nm was separated from the excitation light by a long-pass dichroic mirror (DM405/488, Olympus, Japan), diffractive grating, and an adjustable slit, and detected by a photomultiplier. The samples were imaged by a 40× water immersion lens (UApoN340, NA1.15. Olympus, Japan).
The resulting images were deconvolved and quantitatively analyzed by following published procedures (Bondar A & al., Communications Biology. 2021 Feb. 12; 4(1):1-2.) that rely on publicly available software tools. Briefly, an acquired image, containing in different pixels information on fluorescence intensity excited with distinct polarizations of excitation light was deconvolved into two images, each containing fluorescence intensity excited by one polarization of the excitation light. After background subtraction, an image was generated to show, in each pixel, the base 2 logarithm of the ratio between the values of the corresponding pixels of the images containing information on fluorescence intensity excited with a horizontal and vertical polarization of excitation light. The resulting image was segmented to identify parts that correspond to the cell membrane. […]

In assay [3] the target is T4, activated form of the μ-opioid receptor (Homo sapiens, UniProt P35372).
T4 construct: expressed in transfected cells; host or cells: HEK293
Kind of assay: Polarization microscopy of probe in HEK293 cells, μ-opioid receptor activated by DAMGO. The settings on record: cotransfection of μ-opioid receptor plasmid and 10 μM DAMGO, excitation polarization resolved single-photon confocal microscopy. As to the method:
as §1, §2, §3

In assay [4] the target is T5, activated form of the G-protein Gα13 (Gα13(Q226L)) (Homo sapiens, UniProt Q14344, Q226L).
T5 construct: expressed in transfected cells; host or cells: HEK293
T5 sequence (Q14344 1-377 Q226L): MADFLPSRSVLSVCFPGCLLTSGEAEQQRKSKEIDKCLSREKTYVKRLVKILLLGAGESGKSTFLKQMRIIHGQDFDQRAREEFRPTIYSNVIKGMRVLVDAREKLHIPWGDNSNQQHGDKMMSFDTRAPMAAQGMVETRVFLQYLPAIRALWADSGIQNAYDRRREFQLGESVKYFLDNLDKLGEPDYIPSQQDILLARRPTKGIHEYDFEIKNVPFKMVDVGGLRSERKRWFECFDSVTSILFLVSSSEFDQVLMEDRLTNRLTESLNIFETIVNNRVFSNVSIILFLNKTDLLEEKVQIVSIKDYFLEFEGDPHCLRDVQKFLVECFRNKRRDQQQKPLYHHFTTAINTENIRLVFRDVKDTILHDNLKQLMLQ
Kind of assay: Polarization microscopy of probe in HEK293 cells, with or without cotransfected Gα13(Q226L). The settings on record: cotransfection of Gα13(Q226L) plasmid, excitation polarization resolved single-photon confocal microscopy. As to the method:
as §1, §2, §3

The target in assay [5] is T6, activated form of the small GTPase Rac1 (Rac1(Q61L)) (Homo sapiens, UniProt P63000, Q61L).
T6 construct: expressed in transfected cells; host or cells: HEK293
Kind of assay: Polarization microscopy of probe in HEK293 cells, with or without cotransfected Rac1(Q61L). The settings on record: cotransfection of Rac1(Q61L) plasmid, excitation polarization resolved single-photon confocal microscopy. As to the method: as §1, §2, §3

In another assay the target is T7, activated form of Gαi1 (Homo sapiens, UniProt P63096).
T7 construct: expressed in transfected cells; host or cells: HEK293
The experiment in a line: Polarization microscopy of probe in HEK293 cells, Gαi1 activated through the α2-adrenergic receptor by norepinephrine. The following applies: HEK293 cells cotransfected with Gαi1, Gβ1, Gγ2 and α2-adrenergic receptor; 10 μM norepinephrine; excitation polarization resolved single-photon confocal microscopy. As to the method: as §1, §2, §3

For assay [6], the target named is T8, activated form of the β2-adrenergic receptor (Homo sapiens, UniProt P07550, E27Q/G16R).
T8 construct: expressed in transfected cells; host or cells: HEK293
Kind of assay: Polarization microscopy of probe in HEK293 cells, β2-adrenergic receptor activated by norepinephrine. The following applies: cotransfection of β2-adrenergic receptor plasmid and 10 μM norepinephrine, excitation polarization resolved single-photon confocal microscopy. As to the method:
as §1, §2, §3

The target of assay [7] is T9, activated form of the small GTPase RhoA (RhoA(Q63L)) (Homo sapiens, UniProt P61586, Q63L).
T9 construct: expressed in transfected cells; host or cells: HEK293
Kind of assay: Polarization microscopy of probe in HEK293 cells, with or without cotransfected RhoA(Q63L). The settings on record: cotransfection of RhoA(Q63L) plasmid, excitation polarization resolved single-photon confocal microscopy. The method, then:
as §1, §2, §3

The subject of assay [8] is activated form of the β2-adrenergic receptor. Kind of assay: Polarization microscopy of probe in HEK293 cells, β2-adrenergic receptor activated by norepinephrine. The following applies: β2-adrenergic receptor is the probe's anchoring moiety, 10 uM norepinephrine, excitation polarization resolved single-photon confocal microscopy. As to the method: as §1, §2, §3
[9] abbreviates: excitation polarization resolved single-photon laser scanning confocal microscopy.

The values that follow come from patent publication US12618828B2, “Probe and method for detecting membrane-associated molecules in living cells” (priority 2021, dated 2026).

T3 sequence (P63096 whole entry Q204L): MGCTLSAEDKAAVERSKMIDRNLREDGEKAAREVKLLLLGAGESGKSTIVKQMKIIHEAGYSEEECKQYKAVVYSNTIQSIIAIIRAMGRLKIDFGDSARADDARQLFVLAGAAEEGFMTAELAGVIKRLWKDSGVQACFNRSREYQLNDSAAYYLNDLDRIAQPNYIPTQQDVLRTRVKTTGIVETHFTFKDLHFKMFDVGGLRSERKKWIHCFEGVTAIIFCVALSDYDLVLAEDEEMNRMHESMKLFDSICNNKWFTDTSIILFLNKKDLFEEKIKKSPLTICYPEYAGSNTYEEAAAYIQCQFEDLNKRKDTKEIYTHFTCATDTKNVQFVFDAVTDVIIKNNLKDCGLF
T4 sequence (P35372 whole entry): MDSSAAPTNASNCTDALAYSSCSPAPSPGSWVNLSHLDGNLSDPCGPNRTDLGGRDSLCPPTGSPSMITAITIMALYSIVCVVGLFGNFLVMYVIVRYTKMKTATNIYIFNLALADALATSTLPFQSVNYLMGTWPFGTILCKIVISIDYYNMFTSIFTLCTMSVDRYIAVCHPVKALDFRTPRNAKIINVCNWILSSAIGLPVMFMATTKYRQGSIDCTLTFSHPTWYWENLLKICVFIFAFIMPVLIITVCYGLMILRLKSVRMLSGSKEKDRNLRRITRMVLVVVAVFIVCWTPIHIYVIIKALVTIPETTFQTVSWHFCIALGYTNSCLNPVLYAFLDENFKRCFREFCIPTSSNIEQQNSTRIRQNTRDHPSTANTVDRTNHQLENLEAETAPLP
T7 sequence (P63096 whole entry): as the sequence (P63096 whole entry Q204L) above, with L204Q counted along it
T1 sequence (P62873 2-340 limits assumed): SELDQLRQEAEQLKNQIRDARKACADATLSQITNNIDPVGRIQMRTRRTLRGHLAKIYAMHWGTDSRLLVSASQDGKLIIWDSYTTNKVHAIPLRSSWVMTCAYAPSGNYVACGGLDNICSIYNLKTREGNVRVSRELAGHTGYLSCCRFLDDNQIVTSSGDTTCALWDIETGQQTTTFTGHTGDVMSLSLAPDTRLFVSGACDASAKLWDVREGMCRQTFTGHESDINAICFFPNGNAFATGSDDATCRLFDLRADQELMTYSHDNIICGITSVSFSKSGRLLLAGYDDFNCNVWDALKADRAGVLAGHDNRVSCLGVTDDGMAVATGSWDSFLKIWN
T1 sequence (P59768 2-68 limits assumed): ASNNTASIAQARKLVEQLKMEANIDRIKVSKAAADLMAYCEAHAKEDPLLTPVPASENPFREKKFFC
T2 sequence (P06213 with tags, fused parts or gaps isoform P06213-2): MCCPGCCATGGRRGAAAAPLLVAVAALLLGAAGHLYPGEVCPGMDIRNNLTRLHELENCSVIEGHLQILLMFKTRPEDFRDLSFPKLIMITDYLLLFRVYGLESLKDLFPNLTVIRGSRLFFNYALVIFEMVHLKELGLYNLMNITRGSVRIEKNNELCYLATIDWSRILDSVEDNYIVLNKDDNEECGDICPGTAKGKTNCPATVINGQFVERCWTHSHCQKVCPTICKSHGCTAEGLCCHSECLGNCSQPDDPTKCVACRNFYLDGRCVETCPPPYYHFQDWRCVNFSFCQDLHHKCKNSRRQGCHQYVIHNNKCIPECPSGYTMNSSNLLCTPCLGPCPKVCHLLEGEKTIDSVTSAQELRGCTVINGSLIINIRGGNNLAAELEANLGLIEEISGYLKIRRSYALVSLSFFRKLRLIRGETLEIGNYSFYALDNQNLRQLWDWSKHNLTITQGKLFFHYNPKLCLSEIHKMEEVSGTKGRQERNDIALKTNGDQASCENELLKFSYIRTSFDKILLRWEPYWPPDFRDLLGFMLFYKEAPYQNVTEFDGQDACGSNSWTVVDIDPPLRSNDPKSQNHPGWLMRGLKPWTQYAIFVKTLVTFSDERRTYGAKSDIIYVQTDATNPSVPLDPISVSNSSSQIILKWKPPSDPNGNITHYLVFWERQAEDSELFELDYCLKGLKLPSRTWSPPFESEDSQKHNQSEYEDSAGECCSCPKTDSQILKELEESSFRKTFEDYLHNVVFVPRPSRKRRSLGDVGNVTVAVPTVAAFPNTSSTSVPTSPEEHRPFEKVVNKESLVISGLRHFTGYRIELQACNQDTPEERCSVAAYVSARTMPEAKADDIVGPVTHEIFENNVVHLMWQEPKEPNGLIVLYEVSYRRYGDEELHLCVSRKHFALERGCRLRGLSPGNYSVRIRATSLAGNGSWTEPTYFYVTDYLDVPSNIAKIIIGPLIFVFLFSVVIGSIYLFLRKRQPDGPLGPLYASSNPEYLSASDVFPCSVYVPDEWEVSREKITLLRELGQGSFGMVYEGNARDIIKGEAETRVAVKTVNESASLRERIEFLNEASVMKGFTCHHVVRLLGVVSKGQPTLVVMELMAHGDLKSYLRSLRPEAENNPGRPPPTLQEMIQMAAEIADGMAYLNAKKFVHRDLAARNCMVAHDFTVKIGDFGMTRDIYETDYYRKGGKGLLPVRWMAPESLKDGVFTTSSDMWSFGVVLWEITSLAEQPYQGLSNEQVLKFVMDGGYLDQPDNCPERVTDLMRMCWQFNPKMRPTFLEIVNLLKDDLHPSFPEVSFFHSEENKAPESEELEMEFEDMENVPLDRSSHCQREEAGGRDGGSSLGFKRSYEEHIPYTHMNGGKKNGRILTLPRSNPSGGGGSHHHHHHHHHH
T9 sequence (P61586 whole entry Q63L): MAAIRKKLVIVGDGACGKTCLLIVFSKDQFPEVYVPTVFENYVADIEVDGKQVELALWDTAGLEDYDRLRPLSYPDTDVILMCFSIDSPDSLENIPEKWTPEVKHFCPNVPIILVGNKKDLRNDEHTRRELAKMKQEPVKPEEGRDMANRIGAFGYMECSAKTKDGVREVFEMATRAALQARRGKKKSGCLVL

Regarding “GAP43-SSGSSGTG-meGFP-GRK2ct [Example 17]”, in the assay with GβGγ dimer, the “linear dichroism of the fluorescent moiety of the probe in presence of its target molecule compared with absence” value is on record as “statistically significantly lower”.
Take GAP43-SSGSSGTG-meGFP-IRS1 [Example 22]: the “linear dichroism of the fluorescent moiety of the probe in presence of its target molecule compared with absence” value in assay [1] is “statistically significantly lower”.
Turning to GAP43-SSGSSGTG-meGFP-KB1753 [Example 4], in [2] (setting [9]), the “linear dichroism of the fluorescent moiety of the probe in presence of its target molecule compared with absence” value is given as “statistically significantly higher”.
For the substance GAP43-SSGSSGTG-meGFP-NB33 [Example 16], in [3], the “linear dichroism of the fluorescent moiety of the probe in presence of its target molecule compared with absence” value is recorded as “statistically significantly lower”.
In the case of GAP43-SSGSSGTG-meGFP-PRGrh [Example 19], the “linear dichroism of the fluorescent moiety of the probe in presence of its target molecule compared with absence” value in assay [4] is listed as “statistically significantly lower”.
In the case of “GAP43-SSGSSGTG-meGFP-Δ6-PAK1 [Example 21]”, the “linear dichroism of the fluorescent moiety of the probe in presence of its target molecule compared with absence” value in [5] was “statistically significantly lower”.
Consider IL4R-SSGSSGTG-meGFP-KB1753 [Example 5], for which the “linear dichroism of the fluorescent moiety of the probe in presence of its target molecule compared with absence” value in assay [2] (setting [9]) is recorded as “statistically significantly higher”.
As for “KB1753-cpmTurquoise2-GSGGSGG-hRas [Example 9]”, the “linear dichroism of the fluorescent moiety of the probe in presence of its target molecule compared with absence” value in assay [2] (setting [9]) is “statistically significantly higher”.
Turning to KB1753-meGFP-GS24-hRas [Example 6], the “linear dichroism of the fluorescent moiety of the probe in presence of its target molecule compared with absence” value in [2] (setting [9]) was “statistically significantly higher”.
As to KB1753-meGFP-GSGGSGG-hRas [Example 1], the “linear dichroism of the fluorescent moiety of the probe in presence of its target molecule compared with absence” value in assay [2] (excitation polarization resolved single-photon confocal, two-photon and wide-field microscopy, FIG. 2A) is “statistically significantly higher”. The “fluorescence polarization of the fluorescent moiety of the probe in presence of its target molecule compared with absence” value in assay [2] (fluorescence polarization resolved single-photon laser scanning confocal microscopy, FIG. 2A) was “statistically significantly higher”. Besides, the “linear dichroism of the fluorescent moiety of the probe in presence of activated Gαi1 compared with absence” value with activated form of Gαi1 was “statistically significantly higher”.
Consider KB1753-meGFP-GSGGSGG-kRas [Example 3], for which the “linear dichroism of the fluorescent moiety of the probe in presence of its target molecule compared with absence” value in assay [2] (setting [9]) is “statistically significantly higher”.
Regarding NB33-meGFP-GSGGSGG-hRas [Example 15], the “linear dichroism of the fluorescent moiety of the probe in presence of its target molecule compared with absence” value in [3] is “statistically significantly lower”.
For the substance NB80-meGFP-GSGGSGG-hRas [Example 13], the “linear dichroism of the fluorescent moiety of the probe in presence of its target molecule compared with absence” value in assay [6] is recorded as “statistically significantly lower”.
For “rhotekin-meGFP-GSGGSGG-hRas [Example 20]”, in [7], the “linear dichroism of the fluorescent moiety of the probe in presence of its target molecule compared with absence” value was “statistically significantly higher”.
Consider β2AR-SSGSSGTG-meGFP-NB80 [Example 14], for which the “linear dichroism of the fluorescent moiety of the probe in presence of its target molecule compared with absence” value in assay [8] was “statistically significantly higher”.
